This note sets out measurements from publication PMC9904299.

The assay has as its target mitochondrially targeted human MSRA tagged with tGFP at its C-terminus (targeting sequence of ornithine carbamoyltransferase fused to the N-terminus of MSRA). In words: co-immunoprecipitation (anti-FLAG IP, anti-tGFP blot), band intensity quantitated with Odyssey infrared scanner. The settings on record: HEK293 cells; 3 separate experiments; parent: est. 100; read off a plot.
For the substance FLAG-tagged human Ndufaf2 M85V, the percent of parent was 90%.
For the substance FLAG-tagged human Ndufaf2 M85V; M160V, the percent of parent worked out at 36%.
The figure for FLAG-tagged human Ndufaf2 M160V is 90%.
